The assay addresses IGF-1R on NCI-H322 cells (UniProt P08069 31-1367, limits assumed). The assay can be described thus: cell-based or functional assay.

IGF-1R on NCI-H322 cells, sequence (P08069 31-1367 limits assumed): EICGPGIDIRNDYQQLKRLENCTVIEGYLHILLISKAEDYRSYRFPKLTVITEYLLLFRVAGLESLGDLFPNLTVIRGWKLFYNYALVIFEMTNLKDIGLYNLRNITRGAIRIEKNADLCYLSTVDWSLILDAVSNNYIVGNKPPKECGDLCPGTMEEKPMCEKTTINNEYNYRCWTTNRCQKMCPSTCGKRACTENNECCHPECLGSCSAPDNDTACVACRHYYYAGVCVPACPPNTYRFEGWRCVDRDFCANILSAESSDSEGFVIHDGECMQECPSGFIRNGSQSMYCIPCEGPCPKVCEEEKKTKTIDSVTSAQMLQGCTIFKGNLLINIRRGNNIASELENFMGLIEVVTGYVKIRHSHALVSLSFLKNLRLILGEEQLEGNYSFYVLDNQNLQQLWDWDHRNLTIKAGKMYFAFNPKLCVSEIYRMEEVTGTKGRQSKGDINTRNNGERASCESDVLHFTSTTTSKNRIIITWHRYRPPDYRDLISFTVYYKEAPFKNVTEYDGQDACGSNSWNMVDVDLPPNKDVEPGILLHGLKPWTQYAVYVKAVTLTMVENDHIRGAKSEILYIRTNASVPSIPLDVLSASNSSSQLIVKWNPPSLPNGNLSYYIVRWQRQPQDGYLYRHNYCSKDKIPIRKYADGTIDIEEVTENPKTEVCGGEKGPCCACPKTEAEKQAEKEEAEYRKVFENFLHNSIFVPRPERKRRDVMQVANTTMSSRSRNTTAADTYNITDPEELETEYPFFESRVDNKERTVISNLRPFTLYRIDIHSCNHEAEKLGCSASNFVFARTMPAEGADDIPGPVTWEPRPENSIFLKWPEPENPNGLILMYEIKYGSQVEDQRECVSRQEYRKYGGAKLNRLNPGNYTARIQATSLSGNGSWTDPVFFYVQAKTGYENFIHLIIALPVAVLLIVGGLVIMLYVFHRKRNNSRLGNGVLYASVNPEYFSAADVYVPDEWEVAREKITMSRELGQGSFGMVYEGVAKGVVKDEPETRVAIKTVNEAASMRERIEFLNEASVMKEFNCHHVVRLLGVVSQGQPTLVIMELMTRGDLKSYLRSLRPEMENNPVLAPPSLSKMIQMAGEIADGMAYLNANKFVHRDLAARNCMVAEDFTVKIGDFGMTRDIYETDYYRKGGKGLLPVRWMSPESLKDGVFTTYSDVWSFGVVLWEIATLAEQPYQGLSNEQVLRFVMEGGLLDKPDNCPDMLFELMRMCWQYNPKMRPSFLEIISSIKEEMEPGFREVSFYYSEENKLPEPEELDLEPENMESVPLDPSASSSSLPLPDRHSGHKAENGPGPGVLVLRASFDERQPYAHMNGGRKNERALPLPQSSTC

B1: Teprotumumab reference antibody (antibody, V domains shown)
VH: QVELVESGGGVVQPGRSQRLSCAASGFTFSSYGMHWVRQAPGKGLEWVAIIWFDGSSTYYADSVRGRFTISRDNSKNTLYLQMNSLRAEDTAVYFCARELGRRYFDLWGRGTLVSVSS
VL: EIVLTQSPATLSLSPGERATLSCRASQSVSSYLAWYQQKPGQAPRLLIYDASKRATGIPARFSGSGSGTDFTLTISSLEPEDFAVYYCQQRSKWPPWTFGQGTKVESK
As for B1, the “IC50 of inhibition of IGF-1R phosphorylation (antibody dilution started at 100 ug/mL, diluted 1/8)” value was determined as 0.397 µg/mL.

B2: D03-YTE (clone D03 with the YTE mutation M252Y/S254T/T256E, EU numbering) (antibody, human IgG1, kappa, V domains shown)
VH: QVELVESGGGVVQPGRSQRLSCAASGFTFSSHGMHWVRQAPGKGLEWVAYIWFDGSSTYYADSVRGRFTISRDNSKNTLYLQMNSLRAEDTAVYFCARELGRRYFDLWGRGTLVSVSS
VL: EIVLTQSPATLSLSPGERATLSCRASQSVSSALAWYQQKPGQAPRLLIYDASKRATGIPARFSGSGSGTDFTLTISSLEPEDFAVYYCQQRSKYPPWTFGQGTKVESKR
Regarding B2, the “IC50 of inhibition of IGF-1R phosphorylation (antibody dilution started at 100 ug/mL, diluted 1/8)” value came out at 0.0205 µg/mL.
